This note sets out measurements from paper PMC9288512, “Development and characterization of a camelid derived antibody targeting a linear epitope in the hinge domain of human PCSK9 protein” (Scientific Reports, 2022).

In assay [1] the target is T1, recombinant human proprotein convertase subtilisin/kexin 9 (hPCSK9), his-tagged (Homo sapiens, UniProt Q8NBP7).
T1 construct: human PCSK9, recombinant, his-tagged (Sinobiological); No catalogue number is printed; also called human PCSK9; source: bought: Sinobiological, China
The assay can be described thus: SPR; hPCSK9 (10 μg/mL in 10 mM sodium acetate pH 4.0) on flow cell 2 of a CM5 chip at 790 RU, flow cell 1 blank; VHH-based proteins injected in two-fold dilutions (five or three points); 25 °C, Biacore T200; binding 120 s, dissociation 300 s or 350 s; regeneration glycine pH 2.3. The following applies: both partners purified. (In general: In SPR one partner is held on a chip, and binding of the other changes the refractive index at the surface.)

In assay [2] the target is T1, recombinant human proprotein convertase …. The assay is described as above. To be noted: both partners purified. This is another data set of the same source.

T1 sequence (Q8NBP7 153-692): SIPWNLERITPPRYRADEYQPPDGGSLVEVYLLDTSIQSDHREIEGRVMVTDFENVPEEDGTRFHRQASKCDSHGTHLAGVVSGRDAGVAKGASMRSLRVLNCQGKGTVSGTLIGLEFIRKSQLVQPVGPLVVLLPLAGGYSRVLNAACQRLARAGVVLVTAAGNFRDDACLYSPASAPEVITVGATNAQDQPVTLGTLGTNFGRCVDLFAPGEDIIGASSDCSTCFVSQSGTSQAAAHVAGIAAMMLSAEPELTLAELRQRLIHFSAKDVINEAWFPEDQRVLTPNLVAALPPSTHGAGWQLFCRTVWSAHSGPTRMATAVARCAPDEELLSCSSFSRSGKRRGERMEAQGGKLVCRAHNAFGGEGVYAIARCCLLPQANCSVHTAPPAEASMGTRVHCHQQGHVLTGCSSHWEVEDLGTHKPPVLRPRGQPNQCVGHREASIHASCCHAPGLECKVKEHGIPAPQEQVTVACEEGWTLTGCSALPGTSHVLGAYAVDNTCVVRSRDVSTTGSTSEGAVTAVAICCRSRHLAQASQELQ

B1: VHH-B11 (monovalent camelid nanobody against hPCSK9) (VHH)
VHH: QVQLQESGGGSVQAGGSLRLSCTVSGYTYSSNCMGWFRQAPGKEHEGVASIYIGGGSTYYADSVKGRFTISQDNAKNTVYLQMNSLKPEDTAMYYCAVGCQGLVDFGYWDQGTQVTVSS
notes: VHH-B11, llama nanobody; Also expressed in E. coli and HEK293F; also called VHH-B11 Ab; wild type VHH-B11
A word on the Kd: it is the equilibrium constant for the complex coming apart. In the case of B1, in assay [1], the Kd was about 4.4 nM.

B2: VHH-Z3 (VHH-B11 humanized mutant) (VHH)
VHH: EVQLLESGGGLVQPGGSLRLSCAASGYTYSSNCMGWFRQAPGKEHEGVASIYIGGGSTYYADSVKGRFTISQDNAKNTLYLQMNSLRAEDTAVYYCAVGCQGLVDFGYWDQGTQVTVSS
notes: as the chain of m2, mutated at several of the 17 hotspots; has 54Ala in FR2 and 83Ala in FR3; source: P. pastoris X33, secreted, purified
As to B2, the binding result in assay [2] is recorded as “binds”.

B3: VHH-Z1 (VHH-B11 humanized mutant) (VHH)
VHH: EVQLLESGGGLVQPGGSLRLSCTVSGYTYSSNCMGWFRQAPGKEHEGVSSIYIGGGSTYYADSVKGRFTISRDNSKNTLYLQMNSLRAEDTAVYYCAVGCQGLVDFGYWDQGTQVTVSS
notes: as the chain of m2, mutated at several of the 17 hotspots; has 80Pro in FR3; source: P. pastoris X33, secreted, purified
In the case of B3, the binding result in assay [2] is “binds”.

B4: VHH-Z5 (VHH-B11 humanized mutant) (VHH)
VHH: EVQLLESGGGLVQPGGSLRLSCAASGYTYSSNCMGWFRQAPGKEHEGVSSIYIGGGSTYYADSVKGRFTISQDNSKNTVYLQMNSLRAEDTAVYYCAVGCQGLVDFGYWDQGTQVTVSS
notes: as the chain of m2, mutated at several of the 17 hotspots; has 87Val in FR3; source: P. pastoris X33, secreted, purified
B4: the binding result in assay [2] is reported as “binds”.

B5: humanized VHH-B11 (Hu-B11), mutated at all 17 hotspots (VHH)
VHH: EVQLLESGGGLVQPGGSLRLSCAASGYTYSSNCMGWVRQAPGKGLEWVSSIYIGGGSTYYADSVKGRFTISRDNSKNTLYLQMNSLRAEDTAVYYCAVGCQGLVDFGYWDQGTQVTVSS
notes: as the chain of m2 with 17 humanising mutations in FR1-3; source: P. pastoris X33, secreted, purified
Consider B5, for which the Kd in assay [2] was 39.7 nM.
